According to patent US11994512B2, “Single-cell genomic methods to generate ex vivo cell systems that recapitulate in vivo biology with improved fidelity” (Massachusetts Institute of Technology, priority 2018, dated 2024):

B1: O35594 (protein, UniProt O35594 1-676, looked up)
chain: MSDQIKFIVDSLNKEPFKKNYNLITFDSLGPMQLLQVLNDVLAEIDPKQDVDIREEMPEQTAKRMLNLLGILKYKPPGNATDMSTFRQGLVIGSKPVIYPVLHWLLQRSNELKKRAYLARFLIKLEVPSEFLQDETVADTNKQYEELMEAFKTLHKECEQLKTSGFSTAEIRRDISAMEEEKDQLMKRVERLKKRVETVQNHQRMLKIARQLRVEKEREEFLAQQKQEQKNQLFHAVQRLQRVQNQLKSMRHAAADAKPESLMKRLEEEIKFNSYMVTEKFPKELESKKKELHFLQKVVSEPAMGHSDLLELETKVNEVNTEINQLIEKKMMRNEPIEGKLSLYRQQASIISRKKEAKAEELQETKEKLASLEREVLVKTNQTREFDGTEVLKGDEFKRYVSKLRSKSTVFKKKHQIIAEFKAEFGLLQRTEELLKQRQETIQHQLRTIEEKKGISGYSYTQEELERVSALKSEVDEMKGRTLDDMSEMVKKLNSLVSEKKSALAPVIKELRQLRQKCQELTQECDEKKAQYDSCAAGLESNRSKLEQEVRGLREECLQEESKYHYTNCMIKNLEVELRRATDEMKAYVSSDQQEKRKAIREQYTKNITEQENLGKKLREKQKAVRESHGPNMKQAKMWRDLEQLMECKKQCFLKQQSPASIGQVIQEGGEDRLVL
modifications: full-length
B2: O35943 (protein, UniProt O35943 1-207, looked up)
chain: MWAFGGRAAVGLLPRTASRASAWVGNPRWREPIVTCGRRGLHVTVNAGATRHAHLNLHYLQILNIKKQSVCVVHLRNLGTLDNPSSLDETAYERLAEETLDSLAEFFEDLADKPYTLEDYDVSFGDGVLTIKLGGDLGTYVINKQTPNKQIWLSSPSSGPKRYDWTGKNWVYSHDGVSLHELLARELTKALNTKLDLSSLAYSGKGT
modifications: full-length
B3: O35945 (protein, UniProt O35945 1-501, looked up)
chain: MSSPAQPAVPAPLANLKIQHTKIFINNEWHDSVSSKKFPVLNPATEEVICHVEEGDKADVDKAVKAARQAFQIGSPWRTMDASERGRLLNKLADLMERDRLLLATMESMNAGKVFAHAYLLDVEISIKALQYFAGWADKIHGQTIPSDGNIFTYTRREPIGVCGQIIPWNGPLIIFTWKLGPALSCGNTVVVKPAEQTPLTALHMASLIKEAGFPPGVVNIVPGYGPTAGGAISSHMDIDKVSFTGSTEVGKLIKEAAGKSNLKRVTLELGGKSPCIVFADADLDSAVEFAHQGVFFHQGQICVAASRLFVEESIYDEFVRRSVERAKKYILGNPLNSGINQGPQIDKEQHNKILGLIESGKKEGAKLECGGGRWGNKGFFVQPTVFSNVTDEMRIAKEEIFGPVQQIMKFKSMDDVIKRANNTTYGLAAGVFTKDLDKAITVSSALQAGMVWVNCYLAVPVQCPFGGFKMSGNGRELGEHGLYEYTELKTVAMQISQKNS
modifications: full-length
B4: O70126 (protein, UniProt O70126 1-345, looked up)
chain: MAQKENAYPWPYGSKTSQSGLNTLSQRVLRKEPATTSALALVNRFNSQSTAAPGQKLAENKSQGSTASQGSQNKQPFTIDNFEIGRPLGKGKFGNVYLAREKKSRFIVALKILFKSQIEKEGVEHQLRREIEIQAHLKHPNILQLYNYFYDQQRIYLILEYAPRGELYKELQKSRTFDEQRTATIMEELSDALTYCHKKKVIHRDIKPENLLLGLQGELKIADFGWSVHAPSLRRKTMCGTLDYLPPEMIEGRMHNEMVDLWCIGVLCYELMVGNPPFESPSHSETYRRIVKVDLKFPSSVPSGAQDLISKLLKHNPWQRLPLAEVAAHPWVRANSRRVLPPSAL
modifications: full-length
B5: O88310 (protein, UniProt O88310 1-313, looked up)
chain: MTQLGFLLFIMVATRGCSAAEENLDTNRWGNSFFSSLPRSCKEIKQEHTKAQDGLYFLRTKNGVIYQTFCDMTTAGGGWTLVASVHENNMRGKCTVGDRWSSQQGNRADYPEGDGNWANYNTFGSAEAATSDDYKNPGYFDIQAENLGIWHVPNKSPLHNWRKSSLLRYRTFTGFLQHLGHNLFGLYKKYPVKYGEGKCWTDNGPALPVVYDFGDARKTASYYSPSGQREFTAGYVQFRVFNNERAASALCAGVRVTGCNTEHHCIGGGGFFPEGNPVQCGDFASFDWDGYGTHNGYSSSRKITEAAVLLFYR
modifications: full-length
B6: O88451 (protein, UniProt O88451 1-316, looked up)
chain: MWLYLVALVGLWTLLRFFRERQVVSHLQDKYVFITGCDSGFGNLLARQLDRRGMRVLAACLTEKGAEQLRNKTSDRLETVILDVTKTESIVAATQWVKERVGNRGLWGLVNNAGICVFAINEWLKKEDFANILDVNLLGMIEVTLSMLPLVRKARGRVVNISSSMGRVSLCGGGYCISKYGVEAFSDSLRREISYFGVKVAIIEPGGFRTNVSNYERLSHSIEKLWDQTSSEVKEVYDKNFLDSYIKAIQSLTDTCSDDLSVVTDCMEHALTACHPRTRYSAGWDAKLFYLPLSYMPTFLVDAMLYWSSVKPAQAL
modifications: full-length
B7: O88513 (protein, UniProt O88513 1-206, looked up)
chain: MNLSMKQKQEGAQENVKNSPVPRRTLKMIQPSADGSLVGRENELPKGLFKRKLWDDQLASQTSSCGPEANENKDVGDLTQEAFDLISKENPSSQYWKEVAEQRRKALYEALKENEKLHKEIEQKDSEIARLRKENKDLAEVAEHVQYMAEVIERLSNEPLDNFESPDSQEFDSEEEAVEYSELEDSGAGTCAEETVSSSTDARPCT
modifications: full-length
B8: O88554 (protein, UniProt O88554 1-559, looked up)
chain: MAPRRQRSGSGRRVLNEAKKVDNGNKATEDDSPPGKKMRTCQRKGPMAGGKDADRTKDNRDSVKTLLLKGKAPVDPECAAKLGKAHVYCEGDDVYDVMLNQTNLQFNNNKYYLIQLLEDDAQRNFSVWMRWGRVGKTGQHSLVTCSGDLNKAKEIFQKKFLDKTKNNWEDRENFEKVPGKYDMLQMDYAASTQDESKTKEEETLKPESQLDLRVQELLKLICNVQTMEEMMIEMKYDTKRAPLGKLTVAQIKAGYQSLKKIEDCIRAGQHGRALVEACNEFYTRIPHDFGLSIPPVIRTEKELSDKVKLLEALGDIEIALKLVKSERQGLEHPLDQHYRNLHCALRPLDHESNEFKVISQYLQSTHAPTHKDYTMTLLDVFEVEKEGEKEAFREDLPNRMLLWHGSRLSNWVGILSHGLRVAPPEAPITGYMFGKGIYFADMSSKSANYCFASRLKNTGLLLLSEVALGQCNELLEANPKAQGLLRGKHSTKGMGKMAPSPAHFITLNGSTVPLGPASDTGILNPEGYTLNYNEFIVYSPNQVRMRYLLKIQFNFLQLW
modifications: full-length
B9: O88803 (protein, UniProt O88803 1-151, looked up)
chain: MIPTTILISAALLSSALAGPWANICASKSSNEIRTCDSYGCGQYSAQRTQRHHPGVDVLCSDGSVVYAPFTGKIVGQEKPYRNKNAINDGIRLSGRGFCVKIFYIKPIKYKGSIKKGEKLGTLLPLQKIYPGIQSHVHVENCDSSDPTAYL
modifications: full-length

Test system: intracellular proteome of ENR+CD and ENR organoids
Assay: LC-MS/MS TMT proteomics of ENR+CD versus ENR organoids
Format: cell-based, C57BL/6 mice
Settings: for Average logFC / M1-1 Log2 Median Normalized / M1-2 Log2 Median Normalized / M2-1 Log2 Median Normalized / M2-2 Log2 Median Normalized: protein abundance, ENR+CD versus ENR organoids; for Average logFC: aggregate of the four sample pairs; for M1-1 Log2 Median Normalized: replicate M1-1; for M1-1 Log2 Median Normalized / M1-2 Log2 Median Normalized / M2-1 Log2 Median Normalized / M2-2 Log2 Median Normalized: log2 ratio; for M1-2 Log2 Median Normalized: replicate M1-2; for M2-1 Log2 Median Normalized: replicate M2-1; for M2-2 Log2 Median Normalized: replicate M2-2; for change: up = enriched in ENR+CD, down = enriched in ENR, FDR<0.05 and log fold change cut-off
Description: Because PCs are highly secretory, protein-rich cells, Applicants sought to assess the total intracellular proteome between conditions through liquid chromatography mass spectrometry (LC-MS/MS)-based proteomics. Applicants quantified relative protein abundance across eight samples using isobaric mass tag labeling from four ENR and four ENR+CD samples (M1-1 through M2-2, first digit denotes biological donor, second digit denotes technical replicate) (FIG. 3A). Samples were processed and analyzed in a single 10-plex by LC-MS/MS (FIG. 9A).
To affirm the reproducibility of the associated proteins in the ENR+CD-enriched proteome, Applicants performed relative quantification within differentiation sets.
Mass spectrometry proteomics sample preparation, sequencing, and quantification. Organoid cell pellets were isolated from Matrigel with mechanical dissociation and washed (cold PBS 5X) to remove residual extracellular protein. Proteins were extracted from cell pellets with 8 M urea (Sigma), reduced with 5 mM DTT (Thermo Fisher Pierce) for 45 minutes, alkylated with 10 mM IAA (Sigma) for 45 minutes in the dark, and double digested with both Lysyl Endopeptidase “LysC” (Wako) and trypsin (Promega) overnight at RT. A small aliquot of cellular lysate was removed from each sample for protein quantification via the Pierce™ BCA Protein Assay Kit (Pierce). After proteolytic digestion, the samples were quenched using formic acid to a final concentration of 1.0% and subsequently desalted on 10 mg OASIS HLB solid phase columns (Waters).
The peptides were labeled with TMT-10 isobaric mass tag reagent according to manufacturer's instructions (ThermoFisher Scientific). The peptides were labeled at a 1:8 ratio of peptide to TMT reagent, followed by 1-hour incubation at RT with bench top shaking at 850 rpm. After incubation, a […] of labeled tryptic peptide was removed from each labeled condition, desalted with C18 stage tips, and analyzed via LC-MS/MS using a Thermo Fisher Q Exactive Plus Hybrid Mass Spectrometer (QE-Plus) coupled to a Thermo Fisher EASY-nLC 1000 liquid chromatograph to ensure isobaric label incorporation >95%. An additional 1.0 μg of labeled tryptic peptide was removed from each channel, mixed together, desalted on a C18 stage tip, and analyzed via LC-MS to ensure equal relative protein loads. During these quality control steps, the labeled peptides were stored, unquenched at −80° C.

Row | Molecule | Average logFC | M1-1 Log2 Median Normalized | M1-2 Log2 Median Normalized | M2-1 Log2 Median Normalized | M2-2 Log2 Median Normalized | change
1 | B1 | 1.151 | 0.817 | 1.152 | 1.1275 | 1.543 | up
2 | B2 | −1.193 | −0.813 | −0.849 | −1.3945 | −1.715 | down
3 | B3 | −1.329 | −1.241 | −1.721 | −1.8345 | −0.518 | down
4 | B4 | −1.165 | −1.572 | −0.967 | −0.8395 | −1.281 | down
5 | B5 | 1.203 | 1.445 | 1.239 | 0.9545 | 1.175 | up
6 | B6 | −1.416 | −1.202 | −1.565 | −2.2355 | −0.662 | down
7 | B7 | −1.337 | −1.6 | −1.306 | −0.8435 | −1.599 | down
8 | B8 | −1.403 | −1.403 | −0.933 | −1.4925 | −1.465 | down
9 | B9 | 1.443 | 1.692 | 1.063 | 1.4425 | 1.463 | up
